According to the supplement of paper PMC10567573:

B1: PLD5 (parent)
chain: WIVDKQHVYIGSAGLDWQSLGQMK

Variants of: B1
Assay: protein stability index of a GFP-peptide fusion (GPS, HEK-293T) (PSI 1-6); higher = more stable
Settings: c terminus: a fixed tail appended
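Further: lentivirally expressed fusions sorted by FACS into six bins by GFP to DsRed ratio, PSI derived from sequencing read proportions per bin multiplied by bin number.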

| Variant | protein stability index |
| --- | --- |
| WIVDKQEVYIGSAGLDWQSLGQMK [H7E] | 1.42 |
| WIVDKQAVYIGSAGLDWQSLGQMK [H7A] | 2.63 |
| WIVDKQQVYIGSAGLDWQSLGQMK [H7Q] | 1.96 |
| WIVDKQMVYIGSAGLDWQSLGQMK [H7M] | 2.6 |
| WIVDKQHVYIGSAGLDWQFLGQMK [S19F] | 2.34 |
| WIVDKQHVYIGSAGLDWQRLGQMK [S19R] | 1.83 |
| WIVDKQHVYIGSAGLDWQKLGQMK [S19K] | 2.22 |
| WIQDKQHVYIGSAGLDWQSLGQMK [V3Q] | 1.83 |
| WIHDKQHVYIGSAGLDWQSLGQMK [V3H] | 1.74 |
| WINDKQHVYIGSAGLDWQSLGQMK [V3N] | 2.35 |
| WIIDKQHVYIGSAGLDWQSLGQMK [V3I] | 2.64 |
| WIVDKQHVYIGSAGLDQQSLGQMK [W17Q] | 2.09 |
| WIVDKQHVYIGSAGLDHQSLGQMK [W17H] | 2.35 |
| WIVDKQHVYIGSAGLDFQSLGQMK [W17F] | 1.91 |
| WIVDKQHVYIGSAGLDVQSLGQMK [W17V] | 2.24 |
| WLVDKQHVYIGSAGLDWQSLGQMK [I2L] | 1.88 |
| WKVDKQHVYIGSAGLDWQSLGQMK [I2K] | 1.9 |
| WFVDKQHVYIGSAGLDWQSLGQMK [I2F] | 1.64 |
| WCVDKQHVYIGSAGLDWQSLGQMK [I2C] | 1.83 |
| WGVDKQHVYIGSAGLDWQSLGQMK [I2G] | 1.87 |
| WSVDKQHVYIGSAGLDWQSLGQMK [I2S] | 2.08 |
| WAVDKQHVYIGSAGLDWQSLGQMK [I2A] | 2.32 |
| WWVDKQHVYIGSAGLDWQSLGQMK [I2W] | 1.86 |
| WIVDKQHVYRGSAGLDWQSLGQMK [I10R] | 1.65 |

| Variant | protein stability index |
| --- | --- |
| WIVDKQHVYPGSAGLDWQSLGQMK [I10P] | 1.79 |
| WIVDKQHVYIGSAGLDWDSLGQMK [Q18D] | 2.42 |
| WIVDKQHVYIGSAGLDWNSLGQMK [Q18N] | 2.1 |
| WIVDKQHVYIGSAGLDWASLGQMK [Q18A] | 1.95 |
| WIVDPQHVYIGSAGLDWQSLGQMK [K5P] | 1.74 |
| WIVDSQHVYIGSAGLDWQSLGQMK [K5S] | 1.07 |
| WIVDFQHVYIGSAGLDWQSLGQMK [K5F] | 4.11 |
| WIVDNQHVYIGSAGLDWQSLGQMK [K5N] | 2.12 |
| WIVDKQHVYIGYAGLDWQSLGQMK [S12Y] | 1.73 |
| WIVDKQHVYIGIAGLDWQSLGQMK [S12I] | 3.48 |
| WIVDKQHVYIGRAGLDWQSLGQMK [S12R] | 1.6 |
| WIVDKQHVYIGSAGLDWQSLGGMK [Q22G] | 1.8 |
| WIVDKQHVYIGSAGLDWQSLGIMK [Q22I] | 1.53 |
| WIVDKQHVYIGSAGLDWQSLGKMK [Q22K] | 2.32 |
| WIVDKQHVYIGSAGLDWQSLGPMK [Q22P] | 2.01 |
| WIVDKQHVNIGSAGLDWQSLGQMK [Y9N] | 1.81 |
| WIVDKQHVQIGSAGLDWQSLGQMK [Y9Q] | 2.14 |
| WIVDKQHVSIGSAGLDWQSLGQMK [Y9S] | 2.01 |
| WIVDKQHVLIGSAGLDWQSLGQMK [Y9L] | 1.64 |
| WIVDKQHVYIGSAGGDWQSLGQMK [L15G] | 2.2 |
| WIVDKQHVYIGSAGVDWQSLGQMK [L15V] | 1.54 |
| WIVDKQHVYIGSAGMDWQSLGQMK [L15M] | 1.34 |
| WIVDKQHVYIGSAGKDWQSLGQMK [L15K] | 2.02 |
| WIVDKQHAYIGSAGLDWQSLGQMK [V8A] | 1.66 |

| Variant | protein stability index |
| --- | --- |
| WIVDKQHKYIGSAGLDWQSLGQMK [V8K] | 1.9 |
| WIVDKQHNYIGSAGLDWQSLGQMK [V8N] | 2.01 |
| WIVDKQHVYIGSAGLDWQSLDQMK [G21D] | 2 |
| WIVDKQHVYIGSAGLDWQSLNQMK [G21N] | 2.41 |
| WIVDKQHVYIGSAGLDWQSLKQMK [G21K] | 1.54 |
| WIVMKQHVYIGSAGLDWQSLGQMK [D4M] | 2.12 |
| WIVEKQHVYIGSAGLDWQSLGQMK [D4E] | 1.39 |
| WIVKKQHVYIGSAGLDWQSLGQMK [D4K] | 4.58 |
| WIVHKQHVYIGSAGLDWQSLGQMK [D4H] | 2.37 |
| WIVSKQHVYIGSAGLDWQSLGQMK [D4S] | 2.29 |
| WIVTKQHVYIGSAGLDWQSLGQMK [D4T] | 4.09 |
| YIVDKQHVYIGSAGLDWQSLGQMK [W1Y] | 2.23 |
| NIVDKQHVYIGSAGLDWQSLGQMK [W1N] | 2.19 |
| IIVDKQHVYIGSAGLDWQSLGQMK [W1I] | 3.17 |
| GIVDKQHVYIGSAGLDWQSLGQMK [W1G] | 2.67 |
| TIVDKQHVYIGSAGLDWQSLGQMK [W1T] | 2.41 |
| EIVDKQHVYIGSAGLDWQSLGQMK [W1E] | 2.24 |
| AIVDKQHVYIGSAGLDWQSLGQMK [W1A] | 2.11 |
| WIVDKLHVYIGSAGLDWQSLGQMK [Q6L] | 2.87 |
| WIVDKCHVYIGSAGLDWQSLGQMK [Q6C] | 1 |
| WIVDKHHVYIGSAGLDWQSLGQMK [Q6H] | 2.1 |
| WIVDKGHVYIGSAGLDWQSLGQMK [Q6G] | 3.38 |
| WIVDKQHVYIGSPGLDWQSLGQMK [A13P] | 1.55 |
| WIVDKQHVYIGSTGLDWQSLGQMK [A13T] | 2.02 |

| Variant | protein stability index |
| --- | --- |
| WIVDKQHVYIGSAGLDWQSCGQMK [L20C] | 2.05 |
| WIVDKQHVYIGSAGLDWQSKGQMK [L20K] | 2.17 |
| WIVDKQHVYIGSAGLDWQSVGQMK [L20V] | 2 |
| WIVDKQHVYIGSAGLDWQSQGQMK [L20Q] | 1.54 |
| WIVDKQHVYIGSAGLDWQSDGQMK [L20D] | 1.96 |
| WIVDKQHVYIGSAGLDWQSEGQMK [L20E] | 2.3 |
| WIVDKQHVYIGSAGLDWQSLGQPK [M23P] | 1.85 |
| WIVDKQHVYIGSAGLDWQSLGQTK [M23T] | 2.06 |
| WIVDKQHVYIGSAGLDWQSLGQGK [M23G] | 1.9 |
| WIVDKQHVYIGSAGLDWQSLGQNK [M23N] | 1.9 |
| WIVDKQHVYIGSAGLDWQSLGQME [K24E] | 2.51 |
| WIVDKQHVYIGSAGLDWQSLGQMT [K24T] | 2.23 |
| WIVDKQHVYIGSAGLDWQSLGQMI [K24I] | 1.79 |
| WIVDKQHVYIGSAGLDWQSLGQMN [K24N] | 2.36 |
| WIVDKQHVYIGSAGLDWQSLGQMW [K24W] | 2.97 |
| WIVDKQHVYIGSADLDWQSLGQMK [G14D] | 2.12 |
| WIVDKQHVYIGSAPLDWQSLGQMK [G14P] | 2.23 |
| WIVDKQHVYIGSALLDWQSLGQMK [G14L] | 1.64 |
| WIVDKQHVYIVSAGLDWQSLGQMK [G11V] | 2.02 |
| WIVDKQHVYIPSAGLDWQSLGQMK [G11P] | 2.12 |
| WIVDKQHVYIKSAGLDWQSLGQMK [G11K] | 1.26 |
| WIVDKQHVYIHSAGLDWQSLGQMK [G11H] | 1.92 |
